Results as given in patent US20110054149A1 (published 2011).

B1: HcLc (chimera of 2A10: murine 2A10 VH and VL with human IgG constant regions) (antibody, V domains shown)
VH: QVQLQQPGTELVKPGASVKLSCKASGYTFTSYWMHWVKQRPGQGLEWIGNINPSNGGTNYNEKFKSKATLTVDKSSSTAYMQLSSLTSEDSAVYYCELGQGYWGQGTLVTVSS
VL: DIVITQDELSNPVTSGESVSISCRSSKSLLYKDGKTYLNWFLQRPGQSPQLLIYLMSTRASGVSDRFSGSGSGTDFTLEISRVKAEDVGVYYCQQLVEYPLTFGAGTKLELKR
notes: also called 2A10 chimeric antibody; the chimera
B2: murine monoclonal antibody 2A10 (antibody, V domains shown)
VH: QVQLQQPGTELVKPGASVKLSCKASGYTFTSYWMHWVKQRPGQGLEWIGNINPSNGGTNYNEKFKSKATLTVDKSSSTAYMQLSSLTSEDSAVYYCELGQGYWGQGTTLTVSS
VL: DIVITQDELSNPVTSGESVSISCRSSKSLLYKDGKTYLNWFLQRPGQSPQLLIYLMSTRASGVSDRFSGSGSGTDFTLEISRVKAEDVGVYYCQQLVEYPLTFGAGTKLELK
notes: Murine antibody; also called donor antibody
B3: H6Lc (antibody, human IgG1, kappa, V domains shown)
VH: QVQLVQSGAEVKKPGASVKVSCKASGYTFTSYWMHWVRQAPGQGLEWIGNINPSNGGTNYNEKFKSRATMTRDTSTSTAYMELSSLRSEDTAVYYCELGQGYWGQGTLVTVSS
VL: DIVITQDELSNPVTSGESVSISCRSSKSLLYKDGKTYLNWFLQRPGQSPQLLIYLMSTRASGVSDRFSGSGSGTDFTLEISRVKAEDVGVYYCQQLVEYPLTFGAGTKLELKR
notes: Humanised heavy chain H6 paired with chimeric light chain Lc; For the light chain start see the note on HcLc
B4: H1L11 (antibody, human IgG1, kappa, V domains shown)
VH: QVQLVQSGAEVKKPGASVKVSCKASGYTFTSYWMHWVRQAPGQGLEWMGNINPSNGGTNYNEKFKSRVTMTRDTSTSTVYMELSSLRSEDTAVYYCELGQGYWGQGTLVTVSS
VL: DIVITQSPLSLPVTLGQPASISCRSSKSLLYKDGKTYLNWFQQRPGQSPQLLIYLMSTRASGVPDRFSGGGSGTDFTLKISRVEAEDVGVYYCQQLVEYPLTFGQGTKLEIKR
notes: human gamma-1 mutated constant region, human kappa
B5: H16L16 (antibody, human IgG1, kappa)
heavy: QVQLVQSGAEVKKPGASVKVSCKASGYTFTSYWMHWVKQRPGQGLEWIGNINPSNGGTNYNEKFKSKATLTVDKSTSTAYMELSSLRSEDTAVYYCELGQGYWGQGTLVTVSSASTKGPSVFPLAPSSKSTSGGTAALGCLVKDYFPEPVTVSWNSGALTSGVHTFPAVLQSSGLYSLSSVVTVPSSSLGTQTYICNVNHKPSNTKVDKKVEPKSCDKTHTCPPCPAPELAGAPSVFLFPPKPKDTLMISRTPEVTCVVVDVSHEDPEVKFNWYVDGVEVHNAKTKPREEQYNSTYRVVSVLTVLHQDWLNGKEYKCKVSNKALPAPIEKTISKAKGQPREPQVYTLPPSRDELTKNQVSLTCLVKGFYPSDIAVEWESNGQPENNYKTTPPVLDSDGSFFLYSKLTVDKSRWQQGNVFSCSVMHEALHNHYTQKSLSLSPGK
light: DIVMTQSPLSNPVTLGQPVSISCRSSKSLLYKDGKTYLNWFLQRPGQSPQLLIYLMSTRASGVPDRFSGGGSGTDFTLKISRVEAEDVGVYYCQQLVEYPLTFGQGTKLEIKRTVAAPSVFIFPPSDEQLKSGTASVVCLLNNFYPREAKVQWKVDNALQSGNSQESVTEQDSKDSTYSLSSTLTLSKADYEKHKVYACEVTHQGLSSPVTKSFNRGEC
notes: Humanised 2A10; human gamma-1 mutated constant region, human kappa; also called H16L16 FL
B6: H18L16 (antibody, human IgG1, kappa, V domains shown)
VH: QVQLVQSGAEVVKPGASVKLSCKASGYTFTSYWMHWVKQRPGQGLEWIGNINPSNGGTNYNEKFKSKATLTVDKSSSTAYMELSSLRSEDSAVYYCELGQGYWGQGTLVTVSS
VL: DIVMTQSPLSNPVTLGQPVSISCRSSKSLLYKDGKTYLNWFLQRPGQSPQLLIYLMSTRASGVPDRFSGGGSGTDFTLKISRVEAEDVGVYYCQQLVEYPLTFGQGTKLEIKR
notes: Humanised 2A10; human gamma-1 mutated constant region, human kappa; also called H18L16 FL
B7: H14L16 (antibody, human IgG1, kappa, V domains shown)
VH: QVQLVQSGAEVVKPGASVKLSCKASGYTFTSYWMHWVKQAPGQGLEWIGNINPSNGGTNYNEKFKSRATLTRDTSTSTAYMELSSLRSEDTAVYYCELGQGYWGQGTLVTVSS
VL: DIVMTQSPLSNPVTLGQPVSISCRSSKSLLYKDGKTYLNWFLQRPGQSPQLLIYLMSTRASGVPDRFSGGGSGTDFTLKISRVEAEDVGVYYCQQLVEYPLTFGQGTKLEIKR
notes: Humanised 2A10; human gamma-1 mutated constant region, human kappa
B8: H14L18 (antibody, human IgG1, kappa, V domains shown)
VH: QVQLVQSGAEVVKPGASVKLSCKASGYTFTSYWMHWVKQAPGQGLEWIGNINPSNGGTNYNEKFKSRATLTRDTSTSTAYMELSSLRSEDTAVYYCELGQGYWGQGTLVTVSS
VL: DIVMTQDPLSNPVTLGQPVSISCRSSKSLLYKDGKTYLNWFLQRPGQSPQLLIYLMSTRASGVSDRFSGSGSGTDFTLKISRVEAEDVGVYYCQQLVEYPLTFGQGTKLEIKR
notes: as for B7
B9: H18L18 (antibody, human IgG1, kappa, V domains shown)
VH: QVQLVQSGAEVVKPGASVKLSCKASGYTFTSYWMHWVKQRPGQGLEWIGNINPSNGGTNYNEKFKSKATLTVDKSSSTAYMELSSLRSEDSAVYYCELGQGYWGQGTLVTVSS
VL: DIVMTQDPLSNPVTLGQPVSISCRSSKSLLYKDGKTYLNWFLQRPGQSPQLLIYLMSTRASGVSDRFSGSGSGTDFTLKISRVEAEDVGVYYCQQLVEYPLTFGQGTKLEIKR
notes: Humanised 2A10; tested as CHO-K1 transfection supernatant; Human gamma-1 mutated constant region, human kappa
B10: H6L13 (antibody, human IgG1, kappa, V domains shown)
VH: QVQLVQSGAEVKKPGASVKVSCKASGYTFTSYWMHWVRQAPGQGLEWIGNINPSNGGTNYNEKFKSRATMTRDTSTSTAYMELSSLRSEDTAVYYCELGQGYWGQGTLVTVSS
VL: DIVMTQSPLSLPVTLGQPASISCRSSKSLLYKDGKTYLNWFQQRPGQSPQLLIYLMSTRASGVPDRFSGGGSGTDFTLKISRVEAEDVGVYYCQQLVEYPLTFGQGTKLEIKR
notes: Humanised 2A10; human gamma-1 mutated constant region, human kappa; also called H6L13 FL
B11: H16L18 (antibody, human IgG1, kappa, V domains shown)
VH: QVQLVQSGAEVKKPGASVKVSCKASGYTFTSYWMHWVKQRPGQGLEWIGNINPSNGGTNYNEKFKSKATLTVDKSTSTAYMELSSLRSEDTAVYYCELGQGYWGQGTLVTVSS
VL: DIVMTQDPLSNPVTLGQPVSISCRSSKSLLYKDGKTYLNWFLQRPGQSPQLLIYLMSTRASGVSDRFSGSGSGTDFTLKISRVEAEDVGVYYCQQLVEYPLTFGQGTKLEIKR
notes: Humanised 2A10; human gamma-1 mutated constant region, human kappa; also called H16L18 FL
B12: H18L13 (antibody, human IgG1, kappa, V domains shown)
VH: QVQLVQSGAEVVKPGASVKLSCKASGYTFTSYWMHWVKQRPGQGLEWIGNINPSNGGTNYNEKFKSKATLTVDKSSSTAYMELSSLRSEDSAVYYCELGQGYWGQGTLVTVSS
VL: DIVMTQSPLSLPVTLGQPASISCRSSKSLLYKDGKTYLNWFQQRPGQSPQLLIYLMSTRASGVPDRFSGGGSGTDFTLKISRVEAEDVGVYYCQQLVEYPLTFGQGTKLEIKR
notes: as for B9
B13: H17L13 (antibody, human IgG1, kappa)
heavy: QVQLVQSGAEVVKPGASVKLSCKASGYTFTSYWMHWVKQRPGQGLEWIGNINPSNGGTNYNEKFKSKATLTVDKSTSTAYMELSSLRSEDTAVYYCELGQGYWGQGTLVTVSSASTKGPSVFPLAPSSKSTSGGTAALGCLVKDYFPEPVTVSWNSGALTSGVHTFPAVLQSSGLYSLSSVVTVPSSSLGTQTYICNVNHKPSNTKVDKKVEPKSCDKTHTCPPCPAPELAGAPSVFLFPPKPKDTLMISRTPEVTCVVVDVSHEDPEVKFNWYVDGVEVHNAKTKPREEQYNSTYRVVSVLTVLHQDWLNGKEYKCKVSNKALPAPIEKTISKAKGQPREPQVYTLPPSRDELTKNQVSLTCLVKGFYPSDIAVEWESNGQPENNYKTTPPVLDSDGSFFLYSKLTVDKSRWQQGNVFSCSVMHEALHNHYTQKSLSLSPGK
light: DIVMTQSPLSLPVTLGQPASISCRSSKSLLYKDGKTYLNWFQQRPGQSPQLLIYLMSTRASGVPDRFSGGGSGTDFTLKISRVEAEDVGVYYCQQLVEYPLTFGQGTKLEIKRTVAAPSVFIFPPSDEQLKSGTASVVCLLNNFYPREAKVQWKVDNALQSGNSQESVTEQDSKDSTYSLSSTLTLSKADYEKHKVYACEVTHQGLSSPVTKSFNRGEC
notes: as for B9

Key:
GST-human NOGO-A56 [1] = target: T1, GST-human NOGO-A56 (human, UniProt Q9NQC3 586-785); assay: SPR off-rate ranking (Biacore), CHO-K1 transfection supernatant over GST-human NOGO-A56 chip; mean (SD) of two experiments
T1 construct: also called hNOGO; recombinant human NOGO; not shown: Glutathione S-transferase (GST) tag encoded by vector pGEX-6P1, N-terminal to the NOGO-A fragment; the tag and linker se
T1 sequence: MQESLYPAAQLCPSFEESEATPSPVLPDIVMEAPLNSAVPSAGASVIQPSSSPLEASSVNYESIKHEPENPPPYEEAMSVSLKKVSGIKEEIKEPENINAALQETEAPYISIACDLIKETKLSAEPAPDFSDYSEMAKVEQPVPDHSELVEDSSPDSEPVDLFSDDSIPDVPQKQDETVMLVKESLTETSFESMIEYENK
Protocol: (§1) hNOGO (GST-human NOGO-A56) was immobilised to a CM5 chip by primary amine coupling using the Biacore Wizard program designed for targeted immobilisation levels. The CM5 sensor surface was activated by passing a solution of 50 mM N-hydroxy-succinimide (NHS) and 200 mM N-ethyl-N′-dimethylaminopropyl […] (EDC). Then hNOGO in sodium acetate buffer, pH5.0 or pH 4.5, was passed over the chip and immobilised. After immobilisation was complete any still activated esters were blocked by an injection of 1M ethanolamine hydrochloride, pH8.5.
(§2) The hNOGO chip was prepared as for kinetic analysis. Cell supernatants where taken directly from transient transfections of CHO—K1 cells. These were passed directly over the sensor surface and the interaction measured. A mock transfected cell supernatant was used for double referencing to remove any artefacts due to the tissue culture media. All runs were referenced against a blanked sensor surface (one that had been activated and blocked as described earlier but had no addition of ligand). Analysis of binding was carried out using the BIAevaluation kinetic analysis software version 4.1.

GST-human NOGO-A56 [2] = target: T1, GST-human NOGO-A56; assay: SPR (Biacore 3000), GST-human NOGO-A56 on CM5 chip, antibody as analyte; single experiment
Protocol: (§3) The binding kinetics of the anti-NOGO monoclonal antibody (mAb) to recombinantly expressed human NOGO-A (GST-human NOGO-A56) was analysed using the Biacore3000 biosensor. The hNOGO-A chip was prepared as follows:
as §1
(§4) The anti-NOGO mAbs were diluted down in HBS-EP (10 mM HEPES, pH 7.4, 150 mM NaCl, 3 mM EDTA, and 0.005% P-20 surfactant) and binding studies were carried out at range of defined antibody concentrations. All runs were referenced against a blanked sensor surface (one that had been activated and blocked as described earlier but had no addition of ligand). Analysis of binding was carried out using the BIAevaluation kinetic analysis software version 4.1. Biacore analysis of other antibodies of the invention essentially followed the same protocol as described herein.

GST-human NOGO-A56 [3] = target: T1, GST-human NOGO-A56; assay: SPR (Biacore 3000), GST-human NOGO-A56 on CM5 chip, antibody as analyte; mean (SD) of two experiments
Protocol: as §3, §1, §4

GST-human NOGO-A56 [4] = target: T1, GST-human NOGO-A56; assay: SPR (Biacore 3000), GST-human NOGO-A56 amine-coupled to CM5 chip, antibody as analyte; mean (SD) of four experiments
Protocol: as §3, §1, §4

GST-human NOGO-A56 [5] = target: T1, GST-human NOGO-A56; assay: SPR (BiaCore kinetic analysis), told in the summary section
GST-human NOGO-A56 [6] = target: T1, GST-human NOGO-A56; assay: SPR off-rate ranking (Biacore), CHO-K1 transfection supernatant over GST-human NOGO-A56 chip; mean (SD) of three experiments
Protocol: as §1, §2

GST-human NOGO-A56 [7] = target: T1, GST-human NOGO-A56; assay: SPR off-rate ranking (Biacore), CHO-K1 transfection supernatant over GST-human NOGO-A56 chip; single experiment
Protocol: as §1, §2

GST-human NOGO-A56 [8] = target: T1, GST-human NOGO-A56; assay: SPR (Biacore 3000), GST-human NOGO-A56 on CM5 chip, antibody as analyte; single experiment; remark: listed apart in the source
Protocol: as §3, §1, §4

Row | Binder | Kd (GST-human NOGO-A56 [2]) [nM] | koff (GST-human NOGO-A56 [2]) [s⁻¹] | kon (GST-human NOGO-A56 [2]) [M⁻¹ s⁻¹] | Kd (GST-human NOGO-A56 [4]) [nM] | koff (GST-human NOGO-A56 [4]) [s⁻¹] | kon (GST-human NOGO-A56 [4]) [M⁻¹ s⁻¹] | koff (GST-human NOGO-A56 [6]) [s⁻¹] | koff (GST-human NOGO-A56 [7]) [s⁻¹] | other results
1 | B1 | 1.6 | 0.00412 | 2.62e+06 | 1.41 | 0.00378 | 2.7e+06 |  |  | koff (GST-human NOGO-A56 [1]): 0.00376 s⁻¹; Kd (GST-human NOGO-A56 [3]): 0.995 nM; koff (GST-human NOGO-A56 [3]): 0.00346 s⁻¹; kon (GST-human NOGO-A56 [3]): 3.52e+06 M⁻¹ s⁻¹
2 | B2 |  |  |  |  |  |  |  |  | Kd (GST-human NOGO-A56 [5]): ~1 nM
3 | B3 |  |  |  |  |  |  |  |  | Kd (GST-human NOGO-A56 [3]): 2.21 nM; koff (GST-human NOGO-A56 [3]): 0.00284 s⁻¹; kon (GST-human NOGO-A56 [3]): 2.17e+06 M⁻¹ s⁻¹
4 | B4 |  | 0.0284 | 1.33e+06 | 18.6 | 0.0314 | 1.73e+06 | 0.0403 |  | 
5 | B5 | 1 | 0.00569 | 5.47e+06 | 1.26 | 0.00554 | 4.37e+06 | 0.00664 |  | 
6 | B6 |  |  |  | 1.62 | 0.00586 | 3.64e+06 |  |  | koff (GST-human NOGO-A56 [1]): 0.00687 s⁻¹
7 | B7 | 3.6 | 0.00739 | 2.05e+06 |  |  |  |  | 0.0089 | 
8 | B8 | 3.6 | 0.00869 | 2.41e+06 |  |  |  |  | 0.00835 | 
9 | B9 |  |  |  |  |  |  |  | 0.0058 | 
10 | B10 | 7.3 | 0.013 | 1.77e+06 | 7.68 | 0.0137 | 1.82e+06 | 0.0173 |  | Kd (GST-human NOGO-A56 [8]): 7.9 nM; koff (GST-human NOGO-A56 [8]): 0.0233 s⁻¹; kon (GST-human NOGO-A56 [8]): 2.95e+06 M⁻¹ s⁻¹
11 | B11 |  |  |  | 1.33 | 0.00552 | 4.18e+06 | 0.00609 |  | 
12 | B12 |  |  |  |  |  |  |  | 0.00907 | 
13 | B13 |  |  |  |  |  |  |  | 0.00931 | 
